Reference: article PMC5499675 (2017)

T1: IGRP peptide on HLA-DRA*01:01 / HLA-DRB1*04:01 (human)
T1 peptide: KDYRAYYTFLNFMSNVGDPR

T2: influenza hemagglutinin peptide on HLA-DRA*01:01 / HLA-DRB1*04:01 (human)
T2 peptide: PRYVKQNTLKLAT

B1: Expanded TCR clonotype from subject T1D2 (Sequences 1 and 2) (TCR)
alpha TRAV29 TRAJ40 CDR3: CAATRTSGTYKYIF
beta TRBV6-6 TRBJ2-3 CDR3: CASSPWGAGGTDTQYF
B2: Expanded TCR clonotype from subject T1D4 (Sequences 3 and 4) (TCR)
alpha TRAV2 TRAJ15 CDR3: CAVEDLNQAGTALIF
beta TRBV5-1 TRBJ2-1 CDR3: CASSLALGQGNQQFF

Legend:
[1] = biological target: T1, IGRP peptide on HLA-DRA*01:01 / …; test: multimer staining
[2] = biological target: IGRP peptide on HLA-DRA*01:01 / HLA-DRB1*04:01 (human); test: multimer staining; remark: listed apart in the source
[3] = biological target: T3, IGRP peptide on HLA-DRA*01:01 / HLA-DRB1*04:01 (human); test: multimer staining; remark: listed apart in the source
[4] = biological target: T2, influenza hemagglutinin peptide on …; test: multimer staining
[5] = biological target: T1, IGRP peptide on HLA-DRA*01:01 / …; test: proliferation
[6] = biological target: T3, IGRP peptide on HLA-DRA*01:01 / …; test: proliferation; remark: listed apart in the source

| Binder | binding result [1] | binding result [2] | binding result [3] | binding result [4] | binding result [5] | binding result [6] |
| --- | --- | --- | --- | --- | --- | --- |
| B1 | no recognition | no recognition | recognises | no recognition | – | – |
| B2 | – | recognises | – | no recognition | no recognition | no recognition |
